Laboratory results: paper PMC10425842

Key:
[1] = molecular target: UBR5^ΔSBB2 (UBR5 mutant with an SBB2 domain deletion) (human) (UniProt O95071); test: mass photometry
[2] = molecular target: UBR5^ΔSBB2 (UBR5 mutant with an SBB2 domain deletion) (human) (UniProt O95071); test: cryo-EM 2D classification

stoichiometry N [1]: 2
stoichiometry N [2]: 2
Substance: UBR5^ΔSBB2 (UBR5 mutant with an SBB2 domain deletion) (from UniProt O95071 1-2799) (enzyme)
